Measurements published in patent US20120328619A1 (published 2012).

Assays:
[1] = biological target: T1, human CD123 (alpha subunit of the interleukin-3 receptor) (human, UniProt P26951 19-378); assay: calibrated flow cytometry
T1 construct: whole, on cells; also called IL-3Rα

[2] = biological target: T2, human CD16 (FcγRIII) (human, UniProt P08637 17-254); assay: calibrated flow cytometry on CD16-transfected CHO cells
T2 construct: whole, on cells
Protocol: (§1) Immunofluorescence analysis was performed on a FACSCalibur instrument using CellQuest software (Becton Dickinson, Heidelberg, Germany) as described (Schwemmlein et al, 2006). Briefly, 1×10⁴ events were collected for each sample, and whole cells were analyzed using appropriate scatter gates to exclude cellular debris and aggregates. […] KD values were determined by calibrated flow cytometry, as described (Benedict at al, 1997). The highest mean fluorescence value was set to 100%, and all data points were normalized to this value. The experiments were repeated 6 times. The KD values were calculated using a nonlinear regression curve fit.

[3] = biological target: T1, human CD123 (alpha subunit of the …); assay: calibrated flow cytometry on CD123-transfected 293 cells
Protocol: as §1

[4] = biological target: T3, CD123 and CD33 on double positive MOLM-13 cells (human, UniProt P26951 19-378; P20138 18-364); assay: calibrated flow cytometry on CD123 and CD33 double positive MOLM-13 cells (avidity)
T3 construct: whole, on cells; Two separate surface antigens on the same cell, not a complex; also called CD33/CD123
T3 sequence (P26951 19-378, chain 1 of 2): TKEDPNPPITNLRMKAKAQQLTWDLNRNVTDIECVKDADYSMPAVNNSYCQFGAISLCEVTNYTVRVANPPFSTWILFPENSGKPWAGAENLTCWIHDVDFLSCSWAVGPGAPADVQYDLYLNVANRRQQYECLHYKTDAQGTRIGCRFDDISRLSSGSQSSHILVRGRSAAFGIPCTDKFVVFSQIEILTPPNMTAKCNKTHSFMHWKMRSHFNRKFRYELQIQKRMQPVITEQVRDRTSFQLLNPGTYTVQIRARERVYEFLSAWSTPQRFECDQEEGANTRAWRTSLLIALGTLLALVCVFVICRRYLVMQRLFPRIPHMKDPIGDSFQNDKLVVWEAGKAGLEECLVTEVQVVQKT
T3 sequence (P20138 18-364, chain 2 of 2): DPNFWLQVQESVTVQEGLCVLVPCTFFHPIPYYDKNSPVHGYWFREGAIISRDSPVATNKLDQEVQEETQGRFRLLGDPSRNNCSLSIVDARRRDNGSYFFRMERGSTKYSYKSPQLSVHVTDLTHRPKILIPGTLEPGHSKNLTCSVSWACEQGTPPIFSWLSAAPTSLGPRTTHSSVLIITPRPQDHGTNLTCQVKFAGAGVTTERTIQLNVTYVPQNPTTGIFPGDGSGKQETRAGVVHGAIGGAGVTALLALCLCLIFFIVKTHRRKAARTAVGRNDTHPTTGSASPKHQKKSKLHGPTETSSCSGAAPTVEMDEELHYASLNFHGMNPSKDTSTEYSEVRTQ
Protocol: as §1

[5] = biological target: T4, CD33 (human, UniProt P20138 18-364); assay: calibrated flow cytometry on U937 cells
T4 construct: whole, on cells; also called CD33 on U937 cells
T4 sequence (P20138 18-364): as the sequence (P20138 18-364, chain 2 of 2) above
Protocol: as §1

T1 sequence (P26951 19-378): as the sequence (P26951 19-378, chain 1 of 2) above
T2 sequence (P08637 17-254): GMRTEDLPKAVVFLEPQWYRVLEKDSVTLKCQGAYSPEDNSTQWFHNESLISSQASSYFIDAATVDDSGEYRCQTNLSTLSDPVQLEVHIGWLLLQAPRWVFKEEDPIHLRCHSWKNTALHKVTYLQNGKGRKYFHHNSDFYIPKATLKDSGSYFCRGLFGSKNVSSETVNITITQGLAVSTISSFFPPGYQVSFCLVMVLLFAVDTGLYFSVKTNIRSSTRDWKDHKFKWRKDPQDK

Row | Binder | Kd [1] [nM] | Kd [2] [nM] | Kd [3] [nM] | Kd [4] [nM] | Kd [5] [nM]
1 | CD123-specific scFv clone 43 (scFv, Murine scFv from a phage display library, expressed in E. coli from pAK400, carries a hexahistidine tag) scFv: MADYKDIVMTQSHKFMSTSVGDRVNITCKASQNVDSAVAWYQQKPGQSPKALIYSASYRYSGVPDRFTGRGSGTDFTLTISSVQAEDLAVYYCQQYYSTPWTFGGGTKLEIKRGGGGSGGGGSGGGGSGGGGSEVKLVESGGGLVQPGGSLSLSCAASGFTFTDYYMSWVRQPPGKALEWLALIRSKADGYTTEYSASVKGRFTLSRDDSQSILYLQMNALRPEDSATYYCARDAAYYSYYSPEGAMDYWGQGTSVTVSS | 4.5 |  |  |  | 
2 | single chain triplebody sctb [123×ds16×33] (other, also called CD123×dsCD16×CD33) MADYKDIVMTQSHKFMSTSVGDRVNITCKASQNVDSAVAWYQQKPGQSPKALIYSASYRYSGVPDRFTGRGSGTDFTLTISSVQAEDLAVYYCQQYYSTPWTFGGGTKLEIKRGGGGSGGGGSGGGGSGGGGSEVKLVESGGGLVQPGGSLSLSCAASGFTFTDYYMSWVRQPPGKALEWLALIRSKADGYTTEYSASVKGRFTLSRDDSQSILYLQMNALRPEDSATYYCARDAAYYSYYSPEGAMDYWGQGTSVTVSSASGAGGGGSGGGGSGGGGSGGGGSAAADYKDIVLTQSPASLAVSLGQRATISCKASQSVDFDGDSFMNWYQQKPGQPPKLLIYTTSNLESGIPARFSASGSGTDFTLNIHPVEEEDTATYYCQQSNEDPYTFGCGTKLELKRGGGGSGGGGSGGGGSGGGGSQVTLKESGPGILQPSQTLSLTCSFSGFSLRTSGMGVGWIRQPSGKCLEWLAHIWWDDDKRYNPALKSRLTISKDTSSNQVFLKIASVDTADTATYYCAQINPAWFAYWGQGTLVTVSRGGGGSGGGGSGGGGSGGGGSMADYKDIVMTQSHKFLLVSVGDRVSITCKASQDVSTAVAWYQQKPGQSPKLLIYSASYRYTGVPDRFIGSGSGTDFTLTISSVQAEDLADYFCQQHYSTPLTFGAGTKLEIKRGGGGSGGGGSGGGGSSGGGSEVQLKESGPGLVAPSQSLSITCTVSGFPLTSYGVSWVRQPPGKGLEWLGVIWGDGSTNYHSALISRLSISKDNSKSQVFLKLNNLQTDDTATYYCARDTYYPYYAMDYWGQGTSVTVSS |  | 21.7 | 18.8 | 13.5 | 17.8
